Experiment [1] has as its target diphtheria toxin receptor on Cos-7 cells (monkey kidney) (monkey) (UniProt Q09118). Briefly: cold competitor against I^125-labelled DT on Cos-7 cells; reference native DT.
In experiment [2] the target is diphtheria toxin receptor on human cell lines (U251, HeLa, Jurkat) (human) (UniProt Q99075). The experiment in a line: cell-based or functional assay.
Experiment [3] concerns the target T1, DTR (diphtheria toxin receptor binding domain, codons 384-535 of DT), control protein (UniProt P00588 416-567).
T1 construct: range 384-535
Briefly: competition with I^125-labelled DT on Cos-7 cells.

For Bcl-xL-DTR, the fold lower affinity than native DT in experiment [1] came to 3 fold. In addition, the Apoptosis Prevention (%), HeLa cells, 0.2 uM STS, 2.17 uM Bcl-xL-DTR, 10 hrs in experiment [2] came out at 32.4%.

B1: diphtheria toxin receptor on Cos-7 cells (monkey kidney) (receptor)
chain: DLQEADLDLLRVTLSSKPQALATPSKEEHGKRKKKGKGLGKKRDPCLRKYKDFCIHGECKYVKELRAPSCICHPGYHGERCHGLSL
notes: whole, on cells; also called DT receptor
In the case of B1, in experiment [3], the binding result was “no binding”.
